Measured values from the supplement of paper PMC10065799, “High-throughput profiling of sequence recognition by tyrosine kinases and SH2 domains using bacterial peptide display” (eLife, 2023).

Each sequence was assayed on AncSZ (assay: phosphorylation enrichment, bacterial display (enrichment ratio); higher = better substrate or ligand; peptides without Tyr show the background).
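Also: 11-residue human phosphosite peptides and single-mutation variants displayed on the E. coli surface, counted by deep sequencing, each peptide's frequency after selection divided by its frequency in the unselected input library; frequency after pTyr selection over input frequency; kinase dosed for 20-30% of maximal phosphorylation in three min.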

Sequence | phosphorylation enrichment
QSRSPYSSRHS [CDK13_Y415_R410Q] | 0.85
RLLRGHDQSAF [HLA-C_Y137_Y137H_YF] | 0.79
IVLEKYKLLPE [DHFR_Y157_D153V] | 0.843
SSTASYFEAPG [RFX2_Y108] | 0.789
TLPAFYMENFS [GLB1_Y552_G554E] | 1.19
KGEDFYFVTCH [FHL1_Y149_C150Y_YF] | 1.26
ILTFKYLQIPM [KIT_Y547_K550I_YF] | 1.07
LDMSQYFRLFN [CPT2_Y217] | 1.1
AVDDKYSRREE [SART1_Y685_I681V] | 0.887
RHFTGCRIELQ [INSR_Y818_Y818C] | 0.779
ASFGPNTRVQS [FOXL2_Y258_Y258N_YF] | 0.567
SLALFYRKVFH [RBL1_Y792_YF] | 1.36
SSNLYYRCLTA [CNGA3_Y169_W171C] | 1.05
GCRSKYVGLWR [KCNQ1_Y184_G189R] | 0.638
VFSSDYFSFVL [USP24_Y2138_YF] | 2.28
MTFMFYRENLR [NLRP14_Y443_V441M_YF] | 1.45
EFHRLYEEFTR [PIK3R1_Y467_D464H_YF] | 0.97

Sequence | phosphorylation enrichment
PQGVRYTYTID [DCX_Y103_I104T] | 1.05
GYKVRYATGSI [FGFR1_Y210_W213G] | 0.499
LEFAKYGSLRG [RET_Y809_V804L_YF] | 0.567
HRAVEYLLMGI [RAD23A_Y197_T200M] | 0.976
LSNPAYCLLLA [DDR1_Y513_R514C] | 1.5
QDGFSYLSRQM [LDLR_Y847_P848L_YF] | 0.985
YSPYDYQPCLA [TNS1_Y798] | 2.3
DTQNSYRCATS [TSC1_Y304_G305R] | 0.771
NSRYTYKLEVK [USH2A_Y3747] | 1.12
IYGASYVPFAA [RBM47_Y541] | 0.701
RCKSHYAAFSV [C1QTNF1_Y145] | 1.41
NKKFHYRELPV [ERN2_Y860_H858Y_YF] | 0.459
LSSEMYVKSYT [F5_Y2149] | 1.46
RSAGKYDVYFI [MECP2_Y120_L124F] | 1.09
CSTIHYNYMCN [TP53_Y234_T230S] | 0.784
SYTDPYAQPPL [KMT2D_Y2378] | 0.927

Each sequence was assayed against EPHB1 (UniProt P54762) in the same assay as above.
Sequence of EPHB1 (P54762 whole entry, looked up): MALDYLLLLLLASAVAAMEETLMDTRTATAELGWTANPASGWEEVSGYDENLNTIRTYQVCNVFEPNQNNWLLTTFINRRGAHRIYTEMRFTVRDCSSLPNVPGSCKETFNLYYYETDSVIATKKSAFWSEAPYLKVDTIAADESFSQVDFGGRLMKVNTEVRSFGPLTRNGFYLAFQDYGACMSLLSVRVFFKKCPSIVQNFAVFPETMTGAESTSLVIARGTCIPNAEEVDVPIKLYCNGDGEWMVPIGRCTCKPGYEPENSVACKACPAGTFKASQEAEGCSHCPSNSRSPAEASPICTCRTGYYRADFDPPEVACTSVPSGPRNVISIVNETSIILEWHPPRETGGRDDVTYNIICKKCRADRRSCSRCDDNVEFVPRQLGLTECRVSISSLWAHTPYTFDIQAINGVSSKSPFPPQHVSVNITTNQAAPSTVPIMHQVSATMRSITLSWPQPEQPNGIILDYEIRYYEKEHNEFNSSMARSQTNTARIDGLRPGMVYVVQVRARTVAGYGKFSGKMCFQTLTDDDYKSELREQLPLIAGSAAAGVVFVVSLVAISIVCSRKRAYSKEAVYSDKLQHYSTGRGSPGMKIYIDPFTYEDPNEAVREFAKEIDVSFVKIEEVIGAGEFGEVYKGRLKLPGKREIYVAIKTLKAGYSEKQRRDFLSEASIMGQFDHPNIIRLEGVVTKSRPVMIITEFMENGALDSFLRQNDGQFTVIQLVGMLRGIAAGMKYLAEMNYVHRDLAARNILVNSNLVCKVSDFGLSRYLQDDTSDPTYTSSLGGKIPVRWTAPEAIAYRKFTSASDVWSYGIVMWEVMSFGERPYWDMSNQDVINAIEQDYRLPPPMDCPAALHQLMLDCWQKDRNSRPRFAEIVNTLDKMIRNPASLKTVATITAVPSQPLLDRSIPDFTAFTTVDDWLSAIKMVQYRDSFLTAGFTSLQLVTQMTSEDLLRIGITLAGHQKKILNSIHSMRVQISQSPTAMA

Sequence | phosphorylation enrichment
QSRSPYSSRHS [CDK13_Y415_R410Q] | 0.471
RLLRGHDQSAF [HLA-C_Y137_Y137H_YF] | 0.465
IVLEKYKLLPE [DHFR_Y157_D153V] | 0.53
SSTASYFEAPG [RFX2_Y108] | 0.445
TLPAFYMENFS [GLB1_Y552_G554E] | 1.25
KGEDFYFVTCH [FHL1_Y149_C150Y_YF] | 0.709
ILTFKYLQIPM [KIT_Y547_K550I_YF] | 0.586
LDMSQYFRLFN [CPT2_Y217] | 0.539
AVDDKYSRREE [SART1_Y685_I681V] | 0.453
RHFTGCRIELQ [INSR_Y818_Y818C] | 0.545
ASFGPNTRVQS [FOXL2_Y258_Y258N_YF] | 0.445
SLALFYRKVFH [RBL1_Y792_YF] | 0.637
SSNLYYRCLTA [CNGA3_Y169_W171C] | 0.563
GCRSKYVGLWR [KCNQ1_Y184_G189R] | 0.411
VFSSDYFSFVL [USP24_Y2138_YF] | 1.73
MTFMFYRENLR [NLRP14_Y443_V441M_YF] | 0.691
EFHRLYEEFTR [PIK3R1_Y467_D464H_YF] | 5.22

Sequence | phosphorylation enrichment
PQGVRYTYTID [DCX_Y103_I104T] | 0.702
GYKVRYATGSI [FGFR1_Y210_W213G] | 0.537
LEFAKYGSLRG [RET_Y809_V804L_YF] | 0.37
HRAVEYLLMGI [RAD23A_Y197_T200M] | 0.479
LSNPAYCLLLA [DDR1_Y513_R514C] | 1.05
QDGFSYLSRQM [LDLR_Y847_P848L_YF] | 0.584
YSPYDYQPCLA [TNS1_Y798] | 3.32
DTQNSYRCATS [TSC1_Y304_G305R] | 0.389
NSRYTYKLEVK [USH2A_Y3747] | 0.618
IYGASYVPFAA [RBM47_Y541] | 0.67
RCKSHYAAFSV [C1QTNF1_Y145] | 1.43
NKKFHYRELPV [ERN2_Y860_H858Y_YF] | 0.362
LSSEMYVKSYT [F5_Y2149] | 1.14
RSAGKYDVYFI [MECP2_Y120_L124F] | 0.691
CSTIHYNYMCN [TP53_Y234_T230S] | 0.586
SYTDPYAQPPL [KMT2D_Y2378] | 0.591

Each sequence was assayed against EPHB2 (UniProt P29323) in the same assay as above.
Sequence of EPHB2 (P29323 whole entry, looked up): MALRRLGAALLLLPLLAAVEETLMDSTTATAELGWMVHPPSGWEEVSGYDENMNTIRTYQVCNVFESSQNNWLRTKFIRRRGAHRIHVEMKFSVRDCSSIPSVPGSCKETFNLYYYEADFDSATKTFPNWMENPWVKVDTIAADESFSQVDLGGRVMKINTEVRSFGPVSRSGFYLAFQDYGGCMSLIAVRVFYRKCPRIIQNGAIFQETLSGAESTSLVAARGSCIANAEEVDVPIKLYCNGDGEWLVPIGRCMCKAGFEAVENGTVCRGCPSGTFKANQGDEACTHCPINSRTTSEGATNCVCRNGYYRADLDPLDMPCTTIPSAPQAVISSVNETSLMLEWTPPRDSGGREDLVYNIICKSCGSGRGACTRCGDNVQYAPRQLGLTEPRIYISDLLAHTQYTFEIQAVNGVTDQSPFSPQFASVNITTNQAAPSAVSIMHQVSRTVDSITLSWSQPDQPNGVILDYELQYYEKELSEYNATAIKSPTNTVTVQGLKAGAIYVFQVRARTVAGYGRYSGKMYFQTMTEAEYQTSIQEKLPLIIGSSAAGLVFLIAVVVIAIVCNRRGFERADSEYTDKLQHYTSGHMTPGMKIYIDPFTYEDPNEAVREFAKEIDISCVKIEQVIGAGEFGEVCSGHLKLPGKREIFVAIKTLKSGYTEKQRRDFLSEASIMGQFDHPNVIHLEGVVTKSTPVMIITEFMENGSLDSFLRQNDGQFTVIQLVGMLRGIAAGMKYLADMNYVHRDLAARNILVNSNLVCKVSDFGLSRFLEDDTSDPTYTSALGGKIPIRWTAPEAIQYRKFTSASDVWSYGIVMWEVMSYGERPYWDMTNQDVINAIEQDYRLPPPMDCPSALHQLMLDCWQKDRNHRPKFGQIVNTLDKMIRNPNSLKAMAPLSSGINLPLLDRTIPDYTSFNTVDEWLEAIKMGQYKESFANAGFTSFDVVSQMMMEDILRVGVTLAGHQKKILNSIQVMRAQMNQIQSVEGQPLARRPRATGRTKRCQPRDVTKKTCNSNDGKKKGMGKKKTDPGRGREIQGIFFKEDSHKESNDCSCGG

Sequence | phosphorylation enrichment
QSRSPYSSRHS [CDK13_Y415_R410Q] | 0.443
RLLRGHDQSAF [HLA-C_Y137_Y137H_YF] | 0.389
IVLEKYKLLPE [DHFR_Y157_D153V] | 0.638
SSTASYFEAPG [RFX2_Y108] | 0.487
TLPAFYMENFS [GLB1_Y552_G554E] | 0.789
KGEDFYFVTCH [FHL1_Y149_C150Y_YF] | 0.788
ILTFKYLQIPM [KIT_Y547_K550I_YF] | 0.649
LDMSQYFRLFN [CPT2_Y217] | 0.531
AVDDKYSRREE [SART1_Y685_I681V] | 0.516
RHFTGCRIELQ [INSR_Y818_Y818C] | 0.778
ASFGPNTRVQS [FOXL2_Y258_Y258N_YF] | 0.399
SLALFYRKVFH [RBL1_Y792_YF] | 0.569
SSNLYYRCLTA [CNGA3_Y169_W171C] | 0.766
GCRSKYVGLWR [KCNQ1_Y184_G189R] | 0.325
VFSSDYFSFVL [USP24_Y2138_YF] | 1.03
MTFMFYRENLR [NLRP14_Y443_V441M_YF] | 0.724
EFHRLYEEFTR [PIK3R1_Y467_D464H_YF] | 2.58

Sequence | phosphorylation enrichment
PQGVRYTYTID [DCX_Y103_I104T] | 0.495
GYKVRYATGSI [FGFR1_Y210_W213G] | 0.479
LEFAKYGSLRG [RET_Y809_V804L_YF] | 0.792
HRAVEYLLMGI [RAD23A_Y197_T200M] | 0.419
LSNPAYCLLLA [DDR1_Y513_R514C] | 0.844
QDGFSYLSRQM [LDLR_Y847_P848L_YF] | 0.797
YSPYDYQPCLA [TNS1_Y798] | 4.75
DTQNSYRCATS [TSC1_Y304_G305R] | 0.501
NSRYTYKLEVK [USH2A_Y3747] | 0.689
IYGASYVPFAA [RBM47_Y541] | 0.861
RCKSHYAAFSV [C1QTNF1_Y145] | 0.903
NKKFHYRELPV [ERN2_Y860_H858Y_YF] | 0.351
LSSEMYVKSYT [F5_Y2149] | 2.05
RSAGKYDVYFI [MECP2_Y120_L124F] | 0.467
CSTIHYNYMCN [TP53_Y234_T230S] | 0.542
SYTDPYAQPPL [KMT2D_Y2378] | 0.482

These sequences were tested against FGFR1 (UniProt P11362) in the same assay as above.
Sequence of FGFR1 (P11362 whole entry, looked up): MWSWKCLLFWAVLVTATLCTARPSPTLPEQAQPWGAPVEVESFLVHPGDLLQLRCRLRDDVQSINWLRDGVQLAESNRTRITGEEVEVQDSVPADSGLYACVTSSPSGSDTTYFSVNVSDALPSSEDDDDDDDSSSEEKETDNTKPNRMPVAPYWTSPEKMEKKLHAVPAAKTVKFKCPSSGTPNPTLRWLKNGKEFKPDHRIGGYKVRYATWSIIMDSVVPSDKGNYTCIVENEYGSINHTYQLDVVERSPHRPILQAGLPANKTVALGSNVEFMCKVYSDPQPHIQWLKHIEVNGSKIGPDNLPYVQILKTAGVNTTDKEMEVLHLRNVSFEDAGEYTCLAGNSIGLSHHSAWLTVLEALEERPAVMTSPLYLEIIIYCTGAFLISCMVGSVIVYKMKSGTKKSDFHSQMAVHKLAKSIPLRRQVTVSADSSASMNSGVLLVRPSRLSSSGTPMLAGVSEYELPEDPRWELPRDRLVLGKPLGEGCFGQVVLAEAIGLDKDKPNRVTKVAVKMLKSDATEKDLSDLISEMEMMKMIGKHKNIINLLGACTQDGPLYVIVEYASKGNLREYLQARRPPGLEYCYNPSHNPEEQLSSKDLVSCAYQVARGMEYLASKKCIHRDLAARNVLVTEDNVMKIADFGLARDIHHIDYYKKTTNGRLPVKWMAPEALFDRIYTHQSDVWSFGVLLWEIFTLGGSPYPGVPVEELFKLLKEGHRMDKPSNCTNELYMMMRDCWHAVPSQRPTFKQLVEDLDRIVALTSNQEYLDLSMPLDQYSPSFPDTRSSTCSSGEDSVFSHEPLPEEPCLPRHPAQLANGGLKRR

Sequence | phosphorylation enrichment
QSRSPYSSRHS [CDK13_Y415_R410Q] | 0.558
RLLRGHDQSAF [HLA-C_Y137_Y137H_YF] | 0.427
IVLEKYKLLPE [DHFR_Y157_D153V] | 0.596
SSTASYFEAPG [RFX2_Y108] | 4.92
TLPAFYMENFS [GLB1_Y552_G554E] | 0.439
KGEDFYFVTCH [FHL1_Y149_C150Y_YF] | 0.62
ILTFKYLQIPM [KIT_Y547_K550I_YF] | 0.442
LDMSQYFRLFN [CPT2_Y217] | 2.15
AVDDKYSRREE [SART1_Y685_I681V] | 0.457
RHFTGCRIELQ [INSR_Y818_Y818C] | 0.488
ASFGPNTRVQS [FOXL2_Y258_Y258N_YF] | 0.479
SLALFYRKVFH [RBL1_Y792_YF] | 0.532
SSNLYYRCLTA [CNGA3_Y169_W171C] | 0.949
GCRSKYVGLWR [KCNQ1_Y184_G189R] | 0.382
VFSSDYFSFVL [USP24_Y2138_YF] | 8.46
MTFMFYRENLR [NLRP14_Y443_V441M_YF] | 0.545
EFHRLYEEFTR [PIK3R1_Y467_D464H_YF] | 0.573

Sequence | phosphorylation enrichment
PQGVRYTYTID [DCX_Y103_I104T] | 0.57
GYKVRYATGSI [FGFR1_Y210_W213G] | 0.416
LEFAKYGSLRG [RET_Y809_V804L_YF] | 0.316
HRAVEYLLMGI [RAD23A_Y197_T200M] | 1.19
LSNPAYCLLLA [DDR1_Y513_R514C] | 6.78
QDGFSYLSRQM [LDLR_Y847_P848L_YF] | 0.872
YSPYDYQPCLA [TNS1_Y798] | 2.63
DTQNSYRCATS [TSC1_Y304_G305R] | 0.565
NSRYTYKLEVK [USH2A_Y3747] | 0.427
IYGASYVPFAA [RBM47_Y541] | 0.78
RCKSHYAAFSV [C1QTNF1_Y145] | 1.1
NKKFHYRELPV [ERN2_Y860_H858Y_YF] | 0.368
LSSEMYVKSYT [F5_Y2149] | 1.27
RSAGKYDVYFI [MECP2_Y120_L124F] | 0.535
CSTIHYNYMCN [TP53_Y234_T230S] | 0.545
SYTDPYAQPPL [KMT2D_Y2378] | 3.08
